In article PMC10588359 one finds stoichiometry N and Kd data, which are given here for three substances.

In general, stoichiometry N refers to the number of molecules, sites or subunits per partner or assembly. As usually defined, the Kd is the concentration at which binding is half-saturated. A higher Kd goes with weaker binding.

Bounds are passed on as bounds.

In assay [1] the target is CaMKK1_(67–480) D293A, unphosphorylated (human) (UniProt Q8N5S9). Put plainly: AUC; sedimentation velocity of CaMKKs alone at two concentrations (CaMKK1 at 10 μM); 50 mM Tris–HCl pH 7.5, 150 mM NaCl, 1 mM TCEP; 20°C, 42,000 rpm; monomer to dimer.
Assay [2] addresses dansyl-labeled calmodulin (DANS-CaM), Ca2+-bound (rat) (UniProt P0DP29). Put plainly: fluorescence polarisation; 2 μM DANS-CaM titrated with CaMKK (30 μM and binary dilution series), 1 h incubation; 10 mM HEPES-NaOH pH 7.4, 150 mM NaCl, 1 mM CaCl2, 0.1% Tween 20, 0.1% BSA; one-site-binding model.
For assay [3] the target is unchanged. The experiment in a line: fluorescence polarisation; as a1 but with 60 μM 14-3-3γ present: 2 μM DANS-CaM titrated with CaMKK (30 μM and binary dilution series), 1 h incubation; 10 mM HEPES-NaOH pH 7.4, 150 mM NaCl, 1 mM CaCl2, 0.1% Tween 20, 0.1% BSA; one-site-binding model.

“CaMKK1_(67–480) D293A, unphosphorylated (from UniProt Q8N5S9 67-480) (domain or fragment)” registered a stoichiometry N in assay [1] of 2.

On to “CaMKK2(93-517) D330A, unphosphorylated (from UniProt Q96RR4 93-517) (domain or fragment)”, for which the values for the Kd in assay [2] and in assay [3] were 560 nM and 510 nM, respectively.

For “pCaMKK2: CaMKK2(93-517) D330A phosphorylated by PKA at four sites (from UniProt Q96RR4 93-517) (domain or fragment)”, the equilibrium dissociation constant (Kd) was 3550 nM in assay [2] and over 10800 nM in assay [3].
